Numbering of substitutions follows the chain as printed. In names and notes the source's numbering stands. Blank lines part the entries; values can stand above or below the molecule they belong to.
T1: mouse SALM3 LRR-Ig-Fn (residues 17–510), wild type, displayed on HEK293T cells (mouse, UniProt Q80XU8 17-510)
T1 construct: SALM3 (LRFN4), mouse, extracellular LRR-Ig-Fn, residues 17-510; also called WT SALM3; SALM3-pDisplay; source: HEK293T, transfected (pDisplay), on the cell surface; not shown: HA, N-terminal, kept; transmembrane domain (from the vector pDisplay), C-terminal, kept
T1 sequence (looked up): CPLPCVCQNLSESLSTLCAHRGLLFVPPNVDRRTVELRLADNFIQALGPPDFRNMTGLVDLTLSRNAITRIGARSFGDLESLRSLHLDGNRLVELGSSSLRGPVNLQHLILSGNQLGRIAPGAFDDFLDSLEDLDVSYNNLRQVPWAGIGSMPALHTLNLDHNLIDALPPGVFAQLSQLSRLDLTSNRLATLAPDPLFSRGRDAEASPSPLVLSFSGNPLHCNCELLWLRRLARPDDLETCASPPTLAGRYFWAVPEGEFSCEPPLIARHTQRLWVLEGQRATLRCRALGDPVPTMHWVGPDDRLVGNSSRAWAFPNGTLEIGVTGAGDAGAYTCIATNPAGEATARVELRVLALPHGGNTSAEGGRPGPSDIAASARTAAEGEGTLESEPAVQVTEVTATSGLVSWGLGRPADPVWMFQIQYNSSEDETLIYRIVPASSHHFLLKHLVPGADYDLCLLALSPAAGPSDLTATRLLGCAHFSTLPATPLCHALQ

T2: PTPσ-Fc fusion protein, B0V2N1
T2 chain: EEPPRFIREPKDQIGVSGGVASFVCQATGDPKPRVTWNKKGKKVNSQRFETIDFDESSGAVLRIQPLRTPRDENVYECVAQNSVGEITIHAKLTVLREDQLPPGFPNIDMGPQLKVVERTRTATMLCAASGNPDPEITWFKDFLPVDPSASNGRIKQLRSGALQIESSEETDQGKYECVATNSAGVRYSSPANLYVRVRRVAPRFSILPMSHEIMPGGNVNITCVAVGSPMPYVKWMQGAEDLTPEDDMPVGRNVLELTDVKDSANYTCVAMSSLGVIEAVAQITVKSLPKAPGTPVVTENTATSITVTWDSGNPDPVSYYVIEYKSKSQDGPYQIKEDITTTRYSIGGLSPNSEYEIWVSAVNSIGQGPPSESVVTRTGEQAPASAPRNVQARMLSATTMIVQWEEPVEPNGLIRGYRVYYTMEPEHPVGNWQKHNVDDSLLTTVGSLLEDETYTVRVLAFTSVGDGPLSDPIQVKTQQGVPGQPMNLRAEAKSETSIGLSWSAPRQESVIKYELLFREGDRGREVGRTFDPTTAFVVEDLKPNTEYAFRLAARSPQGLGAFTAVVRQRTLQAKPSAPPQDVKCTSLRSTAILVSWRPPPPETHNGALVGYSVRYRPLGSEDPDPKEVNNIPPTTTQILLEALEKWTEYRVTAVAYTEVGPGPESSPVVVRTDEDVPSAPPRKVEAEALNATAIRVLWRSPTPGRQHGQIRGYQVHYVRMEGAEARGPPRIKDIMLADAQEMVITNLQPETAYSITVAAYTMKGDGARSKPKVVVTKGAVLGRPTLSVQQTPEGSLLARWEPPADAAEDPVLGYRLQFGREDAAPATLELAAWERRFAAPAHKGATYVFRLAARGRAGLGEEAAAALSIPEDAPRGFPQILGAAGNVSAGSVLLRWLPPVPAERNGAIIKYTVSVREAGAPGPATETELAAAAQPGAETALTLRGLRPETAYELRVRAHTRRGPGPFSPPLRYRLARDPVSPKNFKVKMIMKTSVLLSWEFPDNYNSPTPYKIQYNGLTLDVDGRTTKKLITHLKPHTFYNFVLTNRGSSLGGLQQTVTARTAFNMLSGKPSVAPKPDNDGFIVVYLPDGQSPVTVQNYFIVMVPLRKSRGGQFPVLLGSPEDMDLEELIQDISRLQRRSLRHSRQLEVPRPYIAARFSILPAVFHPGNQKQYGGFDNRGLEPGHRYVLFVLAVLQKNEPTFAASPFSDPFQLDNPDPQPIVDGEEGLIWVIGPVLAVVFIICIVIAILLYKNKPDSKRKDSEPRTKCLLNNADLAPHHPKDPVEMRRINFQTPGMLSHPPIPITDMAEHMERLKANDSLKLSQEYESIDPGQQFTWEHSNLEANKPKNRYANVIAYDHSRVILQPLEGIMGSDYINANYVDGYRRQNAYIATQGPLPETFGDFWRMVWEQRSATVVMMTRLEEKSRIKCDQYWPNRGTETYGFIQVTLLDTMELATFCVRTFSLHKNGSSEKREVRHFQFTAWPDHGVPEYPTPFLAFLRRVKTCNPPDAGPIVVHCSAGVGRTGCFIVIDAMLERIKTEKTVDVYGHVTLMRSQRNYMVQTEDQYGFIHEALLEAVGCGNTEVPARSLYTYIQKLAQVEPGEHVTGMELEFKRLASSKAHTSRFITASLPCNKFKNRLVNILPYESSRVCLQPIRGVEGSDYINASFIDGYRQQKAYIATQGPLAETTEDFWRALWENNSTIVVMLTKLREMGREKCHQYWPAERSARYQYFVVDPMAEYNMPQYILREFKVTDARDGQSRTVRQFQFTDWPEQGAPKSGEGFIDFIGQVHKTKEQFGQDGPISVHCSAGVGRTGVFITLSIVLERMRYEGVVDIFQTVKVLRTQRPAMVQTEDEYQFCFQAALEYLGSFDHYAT

B1: PTPσ-Fc fusion protein (Fc fusion)
chain: PRFIREPKDQIGVSGGVASFVCQATGDPKPRVTWNKKGKKVNSQRFETIDFDESSGAVLRIQPLRTPRDENVYECVAQNSVGEITIHAKLTVLREDQLPPGFPNIDMGPQLKVVERTRTATMLCAASGNPDPEITWFKDFLPVDPSASNGRIKQLRSGALQIESSEETDQGKYECVATNSAGVRYSSPANLYVRVRRVAPRFSILPMSHEIMPGGNVNITCVAVGSPMPYVKWMQGAEDLTPEDDMPVGRNVLELTDVKDSANYTCVAMSSLGVIEAVAQITVKSLPKAPGTPVV
B2: mouse SALM3 LRR-Ig-Fn (residues 17–510), wild type, displayed on HEK293T cells, Q80XU8 L282R; R285A (protein)
chain: T1 sequence (looked up) with L266R, R269A
B3: mouse SALM3 LRR-Ig-Fn (residues 17–510), wild type, displayed on HEK293T cells, Q80XU8 R285A; L305A (protein)
chain: T1 sequence (looked up) with R269A, L289A
B4: mouse SALM3 LRR-Ig-Fn (residues 17–510), wild type, displayed on HEK293T cells, Q80XU8 R247A (protein)
chain: T1 sequence (looked up) with R231A
B5: mouse SALM3 LRR-Ig-Fn (residues 17–510), wild type, displayed on HEK293T cells, Q80XU8 L321A; H313A (protein)
chain: T1 sequence (looked up) with H297A, L305A
B6: mouse SALM3 LRR-Ig-Fn (residues 17–510), wild type, displayed on HEK293T cells, Q80XU8 R107S; Q131A (protein)
chain: T1 sequence (looked up) with R91S, Q115A
B7: Mouse SALM3 LRR (residues 17–284) (domain or fragment, UniProt Q80XU8 17-284, looked up)
chain: CPLPCVCQNLSESLSTLCAHRGLLFVPPNVDRRTVELRLADNFIQALGPPDFRNMTGLVDLTLSRNAITRIGARSFGDLESLRSLHLDGNRLVELGSSSLRGPVNLQHLILSGNQLGRIAPGAFDDFLDSLEDLDVSYNNLRQVPWAGIGSMPALHTLNLDHNLIDALPPGVFAQLSQLSRLDLTSNRLATLAPDPLFSRGRDAEASPSPLVLSFSGNPLHCNCELLWLRRLARPDDLETCASPPTLAGRYFWAVPEGEFSCEPPLIA
modifications: N-glycan at Asn25 (partly visible in one monomer)
notes: SALM3 (LRFN4), mouse, LRR domain, residues 17-284; residues of the Prescission site may remain at the C-terminus after cleavage; also called SALM3 LRR domain; SALM3 LRR construct; not shown: Fc, C-terminal, cleaved
B8: mouse PTPσ Ig1-3-meB+ (residues 33–331) (domain or fragment, UniProt B0V2N1 33-331, looked up)
chain: PRFIREPKDQIGVSGGVASFVCQATGDPKPRVTWNKKGKKVNSQRFETIDFDESSGAVLRIQPLRTPRDENVYECVAQNSVGEITIHAKLTVLREDQLPPGFPNIDMGPQLKVVERTRTATMLCAASGNPDPEITWFKDFLPVDPSASNGRIKQLRSGALQIESSEETDQGKYECVATNSAGVRYSSPANLYVRVRRVAPRFSILPMSHEIMPGGNVNITCVAVGSPMPYVKWMQGAEDLTPEDDMPVGRNVLELTDVKDSANYTCVAMSSLGVIEAVAQITVKSLPKAPGTPVVTENT
notes: Receptor protein tyrosine phosphatase sigma (PTPσ), mouse, Ig1-Ig3 domains, splice form with mini-exon B (meB+), residues 33-331; The meB+ splice form is meant; also called PTPσ_(Ig1-Ig3); PTPσ Ig1-Ig3; source: purified
B9: SALM3 LRR-Ig (residues 17–367) (domain or fragment, mouse, UniProt Q80XU8 17-367, looked up)
chain: CPLPCVCQNLSESLSTLCAHRGLLFVPPNVDRRTVELRLADNFIQALGPPDFRNMTGLVDLTLSRNAITRIGARSFGDLESLRSLHLDGNRLVELGSSSLRGPVNLQHLILSGNQLGRIAPGAFDDFLDSLEDLDVSYNNLRQVPWAGIGSMPALHTLNLDHNLIDALPPGVFAQLSQLSRLDLTSNRLATLAPDPLFSRGRDAEASPSPLVLSFSGNPLHCNCELLWLRRLARPDDLETCASPPTLAGRYFWAVPEGEFSCEPPLIARHTQRLWVLEGQRATLRCRALGDPVPTMHWVGPDDRLVGNSSRAWAFPNGTLEIGVTGAGDAGAYTCIATNPAGEATARVELR
notes: SALM3 (LRFN4), mouse, LRR and Ig domains, residues 17-367; also called SALM3 LRR-Ig construct; source: purified

Columns and labels:
[1] = target: purified SALM3 Thr354Arg-Glu359Ala mutant protein (mouse); test: not stated; oligomeric state in solution of purified SALM3 double mutants against the wild type (Supplementary Fig. S8)
[2] = target: purified SALM3 Leu282Arg-Arg285Ala mutant protein (mouse); test: as above
[3] = target: T1, mouse SALM3 LRR-Ig-Fn (residues …); test: in-cell Western (cell-based binding assay); apparent; concentration series of soluble PTPσ-Fc (1–250 nM) on SALM3-transfected HEK293T cells in 96-well plates, EGB buffer with 1% BSA, overnight at 4 °C; detected with anti-human IgG IRDye 800CW; conditions: one partner purified
[4] = target: T2, PTPσ-Fc fusion protein, B0V2N1; test: in-cell western cell binding assay; conditions: chain shown with the change; 150 nM PTPσ-Fc; SALM3 expressed on the surface of HEK293T cells; parent: est. 49000; read off a plot
[5] = target: the molecule itself; test: SEC-MALS; SEC–MALLS; Superdex 75 10/300, 0.5 ml/min, 20 mM Tris pH 7.4, 150 mM NaCl; 100 µL injected at 1.5 mg/ml (conditions told for the LRR construct)
[6] = target: B9; test: SEC-SAXS; SALM3 LRR-Ig (60 µM) and PTPσ (80 µM) mixed, 1 h at 4 °C; Superdex 200 PC 3.2/30, 30 mM Tris HCl pH 7.5, 150 mM NaCl, 4 °C; rigid body (CORAL) and ab initio (DAMMIN) modelling; conditions: both partners purified

stoichiometry N [1]: 2
Molecule: purified SALM3 Thr354Arg-Glu359Ala mutant protein (domain or fragment)

stoichiometry N [2]: 2
Molecule: purified SALM3 Leu282Arg-Arg285Ala mutant protein (domain or fragment)

Molecule: B1
Kd [3]: 22.3 ± 5 nM

Molecule: B2
response [4]: 2500

Molecule: B3
response [4]: 4000

Molecule: B4
response [4]: 2500

Molecule: B5
response [4]: 2800

Molecule: B6
response [4]: 2800

Molecule: B7
stoichiometry N [5]: 2

Molecule: B8
stoichiometry N [6]: 1 PTPσ per SALM3 (2:2 complex)

Molecule: B9
stoichiometry N [5]: 2
